We go through 5 molecules from US20060035283A1 (CHILDREN S MEDICAL CENTER, published 2006).

Sequences and labels used below:
B3: full-length mouse RasGRF1 (other, UniProt P27671 1-1262, looked up)
chain: MQKAIRLNDGHVVTLGLLAQKDGTRKGYLSKRSADNPKWQTKWFALLQNLLFYFESDSSPRPSGLYLLEGSICKRAPSPKRGTSSKESGEKQQHYFTVNFSNDSQKTLELRTEDAKDCDEWVAAIARASYKILATEHEALMQKYLHLLQVVETEKTVAKQLRQQLEDGEVEIERLKTEVTITNLIKDNDRIQSSNKAGSADDEDSDIKKIKKVQSFLRGWLCRRKWKNIIQDYIRSPHADSMRKRNQVVFSMLEAEAEYVQQLHILVNNFLRPLRMAASSKKPPITHDDVSSIFLNSETIMFLHQIFYQGLKARISSWPTLVLADLFDILLPMLNIYQEFVRNHQYSLQILAHCKQNRDFDKLLKQYEAKPDCEERTLETFLTYPMFQIPRYILTLHELLAHTPHEHVERNSLDYAKSKLEELSRIMHDEVSETENIRKNLAIERMITEGCEILLDTSQTFVRQGSLMQMSLSEKSKSSRGRLGSLSTKKEGERQCFLFSKHLIICTRGSGGKLHLTKNGVISLIDCTLLDEPENLDDEAKGAGPEIEHLEFKIGVEPKDSLPFTVILVASTRQEKAAWTSDIIQCVDNIRCNGLMMNAFEENSKVTVPQMIKSDASLYCDDVDIRFSKTMNSCKVLQIRYASVERLLERLTDLRFLSIDFLNTFLHSYRVFTNAMVVLDKLINIYRKPMSAIPARSLELLFSSSHNAKLLYGDAPKSPRASRKFSSPPPLAIGTSSPSRRRKLSLNIPIITGGKALELASLGCSSDSYANIHSPISPFGKTTLDTGKLCMASSLPKTPEEIDVPATIPEKPGELSASRKHSSDVLKEESEDDQNHSDEDNTEVSPVKSPPTPKSFLNRTITEFPFFNYNNGILMTTCRDLVDNNRSTLSATSAFAIATAGANEGPSNKEVFRRMSLANTGFSSDQRNIDKEFVIRRAATNRVLNVLRHWVTKHTQDFDTDDTLKYRVICFLEEVMHDPDLLTQERKAAANIIRTLTLEETTEQHSMLEEVILMTEGVKTEPFENHPALEIAEQLTLLDHLVFKSIPYEEFFGQGWMKAEKYERTPYIMKTTKHFNHVSNFIASEIIRNEDISARASAIEKWVAVADICRCLHNYNAVLEITSSINRSAIFRLKKTWLKVSKQTKSLLDKLQKLVSSDGRFKNLRESLRNCDPPCVPYLGMYLTDLVFIEEGTPNYTEDGLVNFSKMRMISHIIREIRQFQQTTYKIDPQPKVIQYLLDESFMLDEESLYESSLLIEPKLPT
notes: Full-length; also called in vitro translated RasGRF1; mouse RasGRF1 in pcDNA3

Assay [1] concerns the target T1, in vitro translated full-length NR2B (Rattus norvegicus (Rat), UniProt Q00960 1-1482, limits assumed).
T1 construct: Full-length, 35S-labelled, translated in vitro
Put plainly: co-immunoprecipitation of in vitro translated proteins with anti-HA. The protocol: For in vitro binding experiments, equimolar amounts of in vitro translated ³⁵S-labeled proteins (calculated from radioactivity of the excised protein band and cysteine content in the specific fragment) were incubated with a 3-fold molar excess of translated RasGRF1 for 30 min at 30° C., diluted with RIPA buffer, and immunoprecipitated with anti-HA-agarose (Santa Cruz). In competition experiments, RasGRF1 and NR2B were immunoprecipitated for 2 hr at 4° C. from solubilized rat brain microsomes in the presence of 10 μM NusA, 10 μM NusA-RasGRF1-BD, or 5 μM NusA-NR2B-BD.

Assay [2] has as its target T2, GFP rat NR2A (expressed in HEK293T cells) (rat, UniProt Q00959 23-1464).
T2 construct: whole, on cells; not shown: GFP
Put plainly: co-immunoprecipitation from co-transfected HEK293T cells. The protocol:
Transfected cells were solubilized in lysis buffer (100 mM Tris-Cl [pH 8.5], 500 mM NaCl, 1% Triton X-100) supplemented with corn plete protease inhibitor (Roche) and immunoprecipitated with NR2B (Santa Cruz, sc-9057), NR1, or NR2A (Chemicon) antibody (5 μg/ml), washed with lysis buffer, separated on SDS gel, and blotted on PVDF. Blots were probed with anti-RasGRF1 (Santa Cruz) and the appropriate NR subunit antibody. 6- to 8-week-old rat brain P2 microsomes were isolated and solubilized as described (Luo, J., et al. (1997) Mol. Pharmacol. 51, 79-86). 80 μg of solubilized protein were immunoprecipitated with NR2B, RasGRF1, or pooled rabbit IgG, and immunoprecipitated proteins were probed on Western blot with RasGRF1 and NR2B antibodies. All immunoprecipitation experiments were only taken as valid if repeated 3-5 times with similar results. Routine negative controls with antigen pre-absorption were carried out for antibodies used in immunoprecipitation experiments. Also, all immunoprecipitating antibodies were tested for the cross-reactivity with in vitro translated co-immunoprecipitated molecules.

Assay [3] deals with B3. Nature of the assay: co-immunoprecipitation of in vitro translated proteins with AU1 antibody.

T1 sequence (Q00960 other isoform, or with tags, fused parts or gaps limits assumed): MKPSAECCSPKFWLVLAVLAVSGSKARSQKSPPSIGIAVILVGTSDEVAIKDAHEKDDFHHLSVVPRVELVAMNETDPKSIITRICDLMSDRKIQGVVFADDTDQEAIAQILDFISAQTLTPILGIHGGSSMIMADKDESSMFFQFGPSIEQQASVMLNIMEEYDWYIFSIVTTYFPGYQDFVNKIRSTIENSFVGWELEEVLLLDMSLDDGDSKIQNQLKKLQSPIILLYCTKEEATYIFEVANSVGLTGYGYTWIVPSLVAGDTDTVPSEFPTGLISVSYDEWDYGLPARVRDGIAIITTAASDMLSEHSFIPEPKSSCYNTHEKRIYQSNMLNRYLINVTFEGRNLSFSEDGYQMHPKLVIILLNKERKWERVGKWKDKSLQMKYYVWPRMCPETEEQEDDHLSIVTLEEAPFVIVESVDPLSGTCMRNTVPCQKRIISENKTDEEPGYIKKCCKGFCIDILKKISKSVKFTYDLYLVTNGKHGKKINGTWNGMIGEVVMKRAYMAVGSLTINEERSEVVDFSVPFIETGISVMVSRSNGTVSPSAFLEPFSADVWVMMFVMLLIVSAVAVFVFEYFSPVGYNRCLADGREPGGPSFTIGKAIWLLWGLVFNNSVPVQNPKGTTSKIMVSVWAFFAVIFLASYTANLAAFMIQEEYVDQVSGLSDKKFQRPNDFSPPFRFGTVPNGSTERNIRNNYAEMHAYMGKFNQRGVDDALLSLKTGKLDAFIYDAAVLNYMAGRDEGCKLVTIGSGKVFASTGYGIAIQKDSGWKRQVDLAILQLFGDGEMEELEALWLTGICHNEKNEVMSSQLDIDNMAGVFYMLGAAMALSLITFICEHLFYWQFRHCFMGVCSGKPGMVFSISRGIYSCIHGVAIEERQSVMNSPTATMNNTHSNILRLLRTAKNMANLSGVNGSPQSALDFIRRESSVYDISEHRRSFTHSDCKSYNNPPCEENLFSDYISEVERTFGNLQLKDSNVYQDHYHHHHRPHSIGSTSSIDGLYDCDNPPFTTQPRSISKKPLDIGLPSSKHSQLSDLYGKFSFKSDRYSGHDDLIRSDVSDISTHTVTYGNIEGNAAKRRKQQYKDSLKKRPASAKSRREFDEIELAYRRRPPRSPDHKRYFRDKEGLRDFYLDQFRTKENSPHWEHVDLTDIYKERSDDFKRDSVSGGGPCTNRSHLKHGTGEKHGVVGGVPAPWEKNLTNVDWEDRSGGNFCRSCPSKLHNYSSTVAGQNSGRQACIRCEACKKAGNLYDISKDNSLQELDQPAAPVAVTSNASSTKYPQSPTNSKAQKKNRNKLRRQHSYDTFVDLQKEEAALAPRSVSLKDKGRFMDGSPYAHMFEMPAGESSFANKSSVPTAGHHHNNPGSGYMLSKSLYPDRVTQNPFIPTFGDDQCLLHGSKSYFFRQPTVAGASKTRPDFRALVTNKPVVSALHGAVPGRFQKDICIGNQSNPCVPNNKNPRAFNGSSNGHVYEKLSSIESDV
T2 sequence (Q00959 23-1464): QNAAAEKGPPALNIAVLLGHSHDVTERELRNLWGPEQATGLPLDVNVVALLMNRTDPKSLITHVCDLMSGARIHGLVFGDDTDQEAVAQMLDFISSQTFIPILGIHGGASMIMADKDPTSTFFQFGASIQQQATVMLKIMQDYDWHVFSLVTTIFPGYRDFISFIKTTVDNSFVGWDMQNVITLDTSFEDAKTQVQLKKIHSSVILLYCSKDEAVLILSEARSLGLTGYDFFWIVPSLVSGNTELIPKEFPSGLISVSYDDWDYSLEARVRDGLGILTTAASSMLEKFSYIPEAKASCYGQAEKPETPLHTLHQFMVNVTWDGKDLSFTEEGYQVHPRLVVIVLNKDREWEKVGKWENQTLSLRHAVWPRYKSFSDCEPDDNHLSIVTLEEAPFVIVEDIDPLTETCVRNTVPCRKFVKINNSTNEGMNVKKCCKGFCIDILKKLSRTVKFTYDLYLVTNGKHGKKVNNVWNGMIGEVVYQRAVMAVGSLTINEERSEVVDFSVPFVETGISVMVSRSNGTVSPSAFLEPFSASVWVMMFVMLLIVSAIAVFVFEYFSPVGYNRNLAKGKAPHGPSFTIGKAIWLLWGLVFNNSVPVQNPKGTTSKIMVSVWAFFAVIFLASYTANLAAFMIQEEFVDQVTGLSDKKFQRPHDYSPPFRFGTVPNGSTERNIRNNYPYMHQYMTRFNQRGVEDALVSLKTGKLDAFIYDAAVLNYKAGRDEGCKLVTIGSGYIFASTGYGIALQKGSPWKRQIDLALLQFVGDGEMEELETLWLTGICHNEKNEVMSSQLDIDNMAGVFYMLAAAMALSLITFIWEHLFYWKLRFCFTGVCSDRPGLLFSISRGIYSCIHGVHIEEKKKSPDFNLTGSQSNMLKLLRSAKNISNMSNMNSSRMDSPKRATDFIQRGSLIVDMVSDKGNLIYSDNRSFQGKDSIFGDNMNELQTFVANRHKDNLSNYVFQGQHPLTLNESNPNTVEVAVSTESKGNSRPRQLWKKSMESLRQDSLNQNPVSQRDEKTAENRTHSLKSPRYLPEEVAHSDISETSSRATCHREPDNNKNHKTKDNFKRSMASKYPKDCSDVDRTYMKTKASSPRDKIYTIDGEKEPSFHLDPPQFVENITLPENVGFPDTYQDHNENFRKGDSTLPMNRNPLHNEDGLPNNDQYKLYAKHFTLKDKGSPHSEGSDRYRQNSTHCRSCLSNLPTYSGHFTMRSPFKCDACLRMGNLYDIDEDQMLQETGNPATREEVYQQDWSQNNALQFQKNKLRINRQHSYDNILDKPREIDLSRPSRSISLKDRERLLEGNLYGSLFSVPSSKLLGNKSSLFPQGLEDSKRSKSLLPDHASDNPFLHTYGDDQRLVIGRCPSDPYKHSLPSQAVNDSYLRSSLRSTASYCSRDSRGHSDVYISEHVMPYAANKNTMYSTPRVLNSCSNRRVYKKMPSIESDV

B1: HA-tagged RasGRF1 fragment, amino acids 835-913 (other)
chain: TPKSFRNRITQEFPLFNYNSGIMMTCRDLMDSNRSPLSATSAFAIATAGANESPANKEIYRRMSLANTGYSSDQRNIDK
notes: In vitro translated, 35S-labelled; not shown: HA tag encoded by the 5' primer
For the molecule B1, the binding result in assay [1] is listed as “no binding”.

B2: HA-tagged RasGRF1 fragment, amino acids 1-720 (other)
chain: MQKAIRLNDGHVVSLGLLAQRDGTRKGYLSKRSSDNPKWQTKWFALLQNLLFYFESDSSSRPSGLYLLEGSICKRMPSPKRGTSSKESDKQHHYFTVNFSNDSQKSLELRTDDSKDCDEWVAAIARASYKILATEHEALMQKYLHLLQVVETEKTVAKQLRQQLEDGEVEIERLKAEIANLIKDNERIQSNQLVAPEDEDSDIKKIKKVQSFLRGWLCRRKWKNIIQDYIRSPHADSMRKRNQVVFSMLEAEAEYVQQLHILVNNFLRPLRMAASSKKPPITHDDVSSIFLNSETIMFLHQIFYQGLKARIASWPTLVLADLFDILLPMLNIYQEFVRNHQYSLQILAHCKQNRDFDKLLKQYEAKPDCEERTLETFLTYPMFQIPRYILTLHELLAHTPHEHVERNSLDYAKSKLEELSRVMHDEVSETENIRKNLAIERMITEGCEILLDTSQTFVRQGSLIQVPMSEKGKINKGRLGSLSLKKEGERQCFLFSKHLIICTRGSGSKLHLTKNGVISLIDCTLLDDPENMDDDGKGQEVDHLDFKIWVEPKDSPPFTVILVASSRQEKAAWTSDIIQCVDNIRCNGLMMNAFEENSKVTVPQMIKSDASLYCDDVDIRFSKTMNSCKVLQIRYASVERLLERLTDLRFLSIDFLNTFLHSYRVFTDAVVVLDKLISIYKKPITAIPARSLELLFSSSHNTKLLYGDAPKSPRASRKFS
notes: In vitro translated, 35S-labelled; also called N-terminal portion of RasGRF1; not shown: HA tag encoded by the 5' primer
Turning to B2, the binding result in assay [1] is listed as “no binding”.

For the molecule B3, in assay [2], the binding result is listed as “no binding”.

B4: AU1-tagged NR2B fragment, amino acids 1136-1310 (other)
chain: QFRTKENSPHWEHVDLTDIYKERSDDFKRDSVSGGGPCTNRSHLKHGTGEKHGVVGGVPAPWEKNLTNVDWEDRSGGNFCRSCPSKLHNYSSTVAGQNSGRQACIRCEACKKAGNLYDISKDNSLQELDQPAAPVAVTSNASSTKYPQSPTNSKAQKKNRNKLRRQHSYDTFVDL
notes: In vitro translated, 35S-labelled; also called distal portion of the bait; not shown: AU1 tag encoded by the 5' primer
In the case of B4, the binding result in assay [3] is reported as “no binding”.

B5: HA-tagged RasGRF1 fragment, amino acids 714-841 (other)
chain: RASRKFSSPPPLAIGTSSPVRRRKLSLNIPIITGGKALELASLGCPSDGYTNIHSPISPFGKTTLDTSKLCVASSLTRTPEEIDMTTLEESSGFRKPTSDILKEESDDDQSDVDDTEVSPPTPKSFRN
notes: as for B1
For the molecule B5, in assay [1], the binding result is listed as “no binding”.
